{"source": "paper PMC5951583", "origin": "cited, not measured here", "key": {"[1]": {"target": "Synaptotagmin-2 (Rattus norvegicus) (UniProt P29101)", "sequence (P29101 whole entry)": "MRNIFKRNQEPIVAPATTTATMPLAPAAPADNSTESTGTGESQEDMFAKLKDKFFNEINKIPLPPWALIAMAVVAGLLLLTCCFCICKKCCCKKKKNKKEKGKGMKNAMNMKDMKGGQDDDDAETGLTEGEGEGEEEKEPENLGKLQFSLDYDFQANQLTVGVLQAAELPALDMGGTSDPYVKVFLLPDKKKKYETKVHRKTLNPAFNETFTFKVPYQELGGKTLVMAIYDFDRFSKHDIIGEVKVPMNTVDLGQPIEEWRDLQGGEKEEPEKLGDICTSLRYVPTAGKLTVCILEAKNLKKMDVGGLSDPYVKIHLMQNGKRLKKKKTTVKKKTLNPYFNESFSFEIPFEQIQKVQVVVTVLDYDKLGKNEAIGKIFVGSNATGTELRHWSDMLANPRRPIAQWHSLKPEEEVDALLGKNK", "assay": "SPR"}, "[2]": {"target": "Synaptotagmin-2 (Rattus norvegicus) (UniProt P29101)"}, "[3]": {"target": "Syt-II (Rattus norvegicus) (UniProt P29101)", "sequence (P29101 whole entry)": "as above"}, "[4]": {"target": "Syt-II luminal domain (Rattus norvegicus) (UniProt P29101)", "sequence (P29101 1-60)": "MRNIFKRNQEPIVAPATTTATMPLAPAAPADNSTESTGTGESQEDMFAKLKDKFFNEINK", "assay": "ITC"}, "[5]": {"target": "Synaptotagmin-2 (Rattus norvegicus) (UniProt P29101)", "remark": "listed apart in the source"}, "[6]": {"target": "Synaptotagmin-2 (Rattus norvegicus) (UniProt P29101)", "assay": "ITC"}}, "note": "Like-named read-outs stand apart in the source and are kept apart here."}
{"substance": "BoNT/B (from UniProt P10844)", "values": [{"measurement": "Kd", "setting": "[1]", "value": 0.6, "unit": "nM"}, {"measurement": "Kd", "setting": "[2]", "value": 0.23, "unit": "nM"}, {"measurement": "Kd", "setting": "[3]", "value": 7, "unit": "nM"}]}
{"substance": "BoNT/B HC (HCB) HC (from UniProt P10844)", "values": [{"measurement": "Kd", "setting": "[4]", "value": 34, "unit": "nM"}]}
{"substance": "BoNT/B HC HC (from UniProt P10844)", "values": [{"measurement": "Kd", "setting": "[5]", "value": 7, "unit": "nM"}, {"measurement": "Kd", "setting": "[6]", "value": 34, "unit": "nM"}]}
